We go through 23 molecules from article PMC3713010, “Sox2 Transcriptionally Regulates Pqbp1, an Intellectual Disability-Microcephaly Causative Gene, in Neural Stem Progenitor Cells”.

What all share (assay): EMSA; 10% glycerol, 20 mM HEPES pH 7.8, 45 mM KCl, 10 mM NaCl, 1 mM EDTA, 1 mM DTT, 0.2 ug/uL BSA, 0.1% NP-40, 50 ng poly-dIdC; 20 ng each GST protein; room temperature 30 min (heterodimers 4 C); 6% PAGE 0.25x TBE
Holding throughout (details): protein: recombinant; tags: GST (N-terminal, pGEX-6P-1); label: 32P-dCTP fill-in of the 5' (dG)5 overhangs of both strands (Methods; control probes are given with GGG)
In general terms: Mobility shift assays separate free from complexed probe on a gel.

Data set [1] deals with T1, Brn2 DNA-binding domain (BD-Brn2) (Mus musculus (B6), UniProt P31360 336-435).
T1 sequence: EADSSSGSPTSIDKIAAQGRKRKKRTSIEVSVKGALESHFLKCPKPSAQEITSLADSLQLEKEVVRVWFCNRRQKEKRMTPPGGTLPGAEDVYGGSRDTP
In short, it runs like this:
(§1)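 DNA binding of transcription factor DNA-binding domains to candidate cis-elements was read from band radioactivity in the expected shift region. The GST-tagged domains came from E. coli BL21 via glutathione-sepharose; probes were annealed oligonucleotides labelled with 32P-dCTP. Each assay used 20 ng protein, 40,000–50,000 cpm probe and 50 ng poly-dIdC for 30 min at room temperature, followed by 6% polyacrylamide electrophoresis in 0.25×TBE at 4°C.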

The target in data set [2] is Pax6 DNA-binding domain (BD-Pax6) (Mus musculus (B6), UniProt P63015 190-289). The method, boiled down:
as §1

Data set [3] has as its target T2, Oct6 DNA-binding domain (BD-Oct6) (Mus musculus (B6), UniProt P21952 317-416).
T2 sequence: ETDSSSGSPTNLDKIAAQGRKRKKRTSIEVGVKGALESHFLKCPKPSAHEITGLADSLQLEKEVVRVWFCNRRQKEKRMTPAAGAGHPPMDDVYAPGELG
In short, it runs like this: as §1

Chain of Pax6 DNA-binding domain (BD-Pax6) (P63015 190-289): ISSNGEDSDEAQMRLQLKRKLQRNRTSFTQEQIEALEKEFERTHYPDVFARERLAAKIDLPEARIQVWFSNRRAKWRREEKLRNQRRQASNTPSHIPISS

B1: 57 (dsDNA)
DNA 1: GGGGGCCTAAGATTCTTAATCTGACATTGTAGTCCCTACCCCC
DNA 2: GGGGGTAGGGACTACAATGTCAGATTAAGAATCTTAGGCCCCC
In the case of B1, the binding result in data set [1] was “no binding”; in data set [2], “binds”; in data set [3], “binds”.

B2: 63 (dsDNA)
DNA 1: GGGGGAGAAATCCTCAATTTCCTTATCCACAAAATGGACATTTTCCTAGTACCTCCCCC
DNA 2: GGGGGAGGTACTAGGAAAATGTCCATTTTGTGGATAAGGAAATTGAGGATTTCTCCCCC
Regarding B2, the binding result is “no binding” in data set [1], “binds” in data set [2] and “binds” in data set [3].

B3: 47 (dsDNA)
DNA 1: GGGGGCCACCATCTGTAATGTCCTTGGCACAATAAAACCAACCCCC
DNA 2: GGGGGTTGGTTTTATTGTGCCAAGGACATTACAGATGGTGGCCCCC
In the case of B3, the results for the binding result in data set [1], in data set [2] and in data set [3] were “no binding”, “no binding” and “binds”, respectively.

B4: 51 (dsDNA)
DNA 1: GGGGGGTCCGGCTTTTGTTGATTTGCTTATCTATCCCCC
DNA 2: GGGGGATAGATAAGCAAATCAACAAAAGCCGGACCCCCC
Turning to B4, the binding result in data set [1] is on record as “no binding”; in data set [2] it was “binds”; in data set [3] it was “no binding”.

B5: 66 (dsDNA)
DNA 1: GGGGGGGAACTCCCTTAAATTTGGTTTGTTTATGTGTCCCCC
DNA 2: GGGGGACACATAAACAAACCAAATTTAAGGGAGTTCCCCCCC
With B5, the binding result in data set [1] is reported as “no binding”; in data set [2], “binds”; in data set [3], “binds”.

B6: 58 (dsDNA)
DNA 1: GGGGGTGAGATGGAGGAAATAAGTCTTATTGTTGTTCTCCCCCCC
DNA 2: GGGGGGGAGAACAACAATAAGACTTATTTCCTCCATCTCACCCCC
As for B6, the binding result in data set [1] is given as “no binding”; in data set [2] it was “no binding”; in data set [3], “binds”.

B7: 53 (dsDNA)
DNA 1: GGGGGTGCTTGTGACAAATCTGTCAATTTCTGGTGGGGGCCCCCC
DNA 2: GGGGGGCCCCCACCAGAAATTGACAGATTTGTCACAAGCACCCCC
B7: the binding result in data set [1], in data set [2] and in data set [3] was “no binding” in each case.

B8: 67 (dsDNA)
DNA 1: GGGGGGCATATGCATTGTCTGTGTATTCTAAATGTATCCCCC
DNA 2: GGGGGATACATTTAGAATACACAGACAATGCATATGCCCCCC
In the case of B8, the binding result in data set [1], in data set [2] and in data set [3] was “no binding” each time.

B9: 68 (dsDNA)
DNA 1: GGGGGTTTGTTTGTTTGTTTAAAGGATTTATTTATTTATCCCCC
DNA 2: GGGGGATAAATAAATAAATCCTTTAAACAAACAAACAAACCCCC
Regarding B9, the binding result in data set [1], in data set [2] and in data set [3] was “binds” throughout.

B10: 62 (dsDNA)
DNA 1: GGGGGTTTAAACAATTGTCCCATTCATTATATTGCAACACCCCC
DNA 2: GGGGGTGTTGCAATATAATGAATGGGACAATTGTTTAAACCCCC
On to B10, for which the binding result in data set [1], in data set [2] and in data set [3] was “binds” in each case.

B11: 65 (dsDNA)
DNA 1: GGGGGGTACTTGGTGATAATTTCATTGTCCACATGCCCCCC
DNA 2: GGGGGGCATGTGGACAATGAAATTATCACCAAGTACCCCCC
With B11, the binding result in data set [1], in data set [2] and in data set [3] was “binds” each time.

B12: 60 (dsDNA)
DNA 1: GGGGGAATTTAATTTTGTCTCTACCTTTCACGCTTCTCCTTTGCATTTTCCCCCC
DNA 2: GGGGGGAAAATGCAAAGGAGAAGCGTGAAAGGTAGAGACAAAATTAAATTCCCCC
Consider B12, for which the binding result in data set [1], in data set [2] and in data set [3] was “binds” in each case.

B13: 50 (dsDNA)
DNA 1: GGGGGTTTGTAAGTTTGTACCATTTGGCCTCAGCCCCCCC
DNA 2: GGGGGGGCTGAGGCCAAATGGTACAAACTTACAAACCCCC
Consider B13, for which the binding result in data set [1], in data set [2] and in data set [3] was “no binding” each time.

B14: 49 (dsDNA)
DNA 1: GGGGGCTCTCTGATTTGTGAGTATTGACAGAGAATCCCCC
DNA 2: GGGGGATTCTCTGTCAATACTCACAAATCAGAGAGCCCCC
In the case of B14, the binding result in data set [1], in data set [2] and in data set [3] was “no binding” in each case.

B15: 69 (dsDNA)
DNA 1: GGGGGACAAGTGATTTGTCCTTATCACATAGCTAGGAAAAGGGAATCCCCC
DNA 2: GGGGGATTCCCTTTTCCTAGCTATGTGATAAGGACAAATCACTTGTCCCCC
B15: the figures for the binding result in data set [1], in data set [2] and in data set [3] were “no binding”, “no binding” and “binds”, respectively.

B16: 48 (dsDNA)
DNA 1: GGGGGATGAAATGGCTAAATCCTTTTTTTGTTGTTTGTTCCCCC
DNA 2: GGGGGAACAAACAACAAAAAAAGGATTTAGCCATTTCATCCCCC
In the case of B16, the binding result in data set [1] was “no binding”; in data set [2], “binds”; in data set [3] it was “no binding”.

B17: 61 (dsDNA)
DNA 1: GGGGGTAAATTTTTCTAATCCTGACAAATCTCTTCACCCCC
DNA 2: GGGGGTGAAGAGATTTGTCAGGATTAGAAAAATTTACCCCC
For the molecule B17, the binding result in data set [1] is “no binding”; in data set [2] it was “binds”; in data set [3], “binds”.

B18: 59 (dsDNA)
DNA 1: GGGGGAGCTTTTAACAATTTAATTTTGTCTCTACCTCCCCC
DNA 2: GGGGGAGGTAGAGACAAAATTAAATTGTTAAAAGCTCCCCC
As to B18, the binding result in data set [1], in data set [2] and in data set [3] was “binds” throughout.

B19: 64 (dsDNA)
DNA 1: GGGGGATATATGCACAAACACTCATTTACATAAAATAACCCCC
DNA 2: GGGGGTTATTTTATGTAAATGAGTGTTTGTGCATATATCCCCC
On to B19, for which the binding result in data set [1], in data set [2] and in data set [3] was “binds” throughout.

B20: 55 (dsDNA)
DNA 1: GGGGGGTAGATTATTTGTCCACCATTCACAAGCACTGAGTTCAATAACCCCCC
DNA 2: GGGGGGTTATTGAACTCAGTGCTTGTGAATGGTGGACAAATAATCTACCCCCC
As for B20, the figures for the binding result in data set [1], in data set [2] and in data set [3] were “no binding”, “no binding” and “binds”, respectively.

B21: 56 (dsDNA)
DNA 1: GGGGGACACTTATACAATAATAGTATTTATTAATAGTATCCCCC
DNA 2: GGGGGATACTATTAATAAATACTATTATTGTATAAGTGTCCCCC
Regarding B21, the binding result in data set [1], in data set [2] and in data set [3] was “binds” each time.

B22: 54 (dsDNA)
DNA 1: GGGGGAGGTGTTAAGTGTGGAGTCGTGAGAACAACAATCCAGATAGCCCCC
DNA 2: GGGGGCTATCTGGATTGTTGTTCTCACGACTCCACACTTAACACCTCCCCC
Turning to B22, the binding result was “no binding” in data set [1], “no binding” in data set [2] and “binds” in data set [3].

B23: 52 (dsDNA)
DNA 1: GGGGGGGGGCAGCACAAATATTTCTGTGAATGTACCCCC
DNA 2: GGGGGTACATTCACAGAAATATTTGTGCTGCCCCCCCCC
As for B23, the binding result in data set [1], in data set [2] and in data set [3] was “no binding” each time.
